# Assay results reported in patent US11440969B2, “Use of human epididymis protein 4 (HE4) for assessing responsiveness of MUC 16-positive cancer treatment” (Genentech, Inc., priority 2016, dated 2022).
# B1: DMUC5754A: antibody-drug conjugate: humanized IgG1 anti-MUC16 monoclonal antibody and MMAE, linked through protease labile linker maleimidocaproyl-valine-citrulline-p-aminobenzyloxycarbonyl (conjugate, chains of the INN, looked up)
# VH: EVQLVESGGGLVQPGGSLRLSCAASGYSITNDYAWNWVRQAPGKGLEWVGYISYSGYTTYNPSLKSRFTISRDTSKNTLYLQMNSLRAEDTAVYYCARWTSGLDYWGQGTLVTVSS
# VL: DIQMTQSPSSLSASVGDRVTITCKASDLIHNWLAWYQQKPGKAPKLLIYGATSLETGVPSRFSGSGSGTDFTLTISSLQPEDFATYYCQQYWTTPFTFGQGTKVEIK
# modifications: MMAE via mc-vc-PABC linker
# Experiments:
# [1] = system: platinum-resistant ovarian cancer; assay: Clinical activity of DMUC5754A (RECIST v1.1) in ovarian cancer patients; assay type: in vivo, human
# Protocol: This multicenter, open-label, dose-escalation study was designed to identify the recommended Phase II dose (RP2D) of DMUC5754A in patients with platinum-resistant OC or unresectable pancreatic cancer. In the single-agent dose escalation stage utilizing a 3+3 enrollment scheme, patients were given intravenous DMUC5754A (Genentech Inc.) 0.3-3.2 mg/kg every 3 weeks (q3w) to evaluate the safety, tolerability, and pharmacokinetics of DMUC5754A. Following determination of the maximum tolerated dose (MTD), dose-expansion cohorts were enrolled at the RP2D of 2.4 mg/kg to further characterize the safety and preliminary clinical efficacy of DMUC5754A.
# Dosing on a weekly (qlw) schedule was also evaluated at the RP2D, employing a 3+3 design to determine the MTD of weekly dosing, followed by a cohort expansion to further characterize the safety and activity of q1w dosing.
# OC patients had advanced, epithelial ovarian, primary peritoneal, or fallopian tube cancer that progressed or relapsed within 6 months after the most recent treatment with a platinum-containing chemotherapy regimen and for which no standard therapy exists. […] Progression or relapse from prior platinum-based chemotherapy was documented by RECIST v1.1 or Gynecologic Cancer Intergroup (GCIG) CA125 progression criteria (Vergote et al., 2000). Patients were allowed ≤2 prior chemotherapy regimens.
# Objective response rate was estimated only for patients with disease that was measurable by RECIST guidelines. Objective response is defined as a complete or partial response, as determined by investigator assessment and confirmed by repeat assessments ≥4 weeks after initial documentation. Duration of objective response was defined as the time from the initial complete or partial response to the time of disease progression or death.
# [2] = system: recombinant human MUC16 extracellular domain; assay: Binding to recombinant human MUC16 extracellular domain
molecule,measurement,setting,value
B1,"Best response: Complete response, patients",[1]; 0.8 mg/kg q1w (N = 3),0
same,"Best response: Partial response, patients",[1]; 0.8 mg/kg q1w (N = 3),1
same,"Best response: Progressive disease, patients",[1]; 0.8 mg/kg q1w (N = 3),0
same,"Best response: Stable disease, patients",[1]; 0.8 mg/kg q1w (N = 3),2
same,"Best response: Unable to evaluate, patients",[1]; 0.8 mg/kg q1w (N = 3),0
same,"Duration of response, Median",[1]; 0.8 mg/kg q1w (N = 3),3.0 months
same,"Duration of response, Range",[1]; 0.8 mg/kg q1w (N = 3),3.0-3.0 months
same,"unconfirmed partial responses, patients",[1]; 1.1 mg/kg q1w,1
same,"Best response: Complete response, patients",[1]; 1.1 mg/kg q1w (N = 7),0
same,"Best response: Partial response, patients",[1]; 1.1 mg/kg q1w (N = 7),1
same,"Best response: Progressive disease, patients",[1]; 1.1 mg/kg q1w (N = 7),3
same,"Best response: Stable disease, patients",[1]; 1.1 mg/kg q1w (N = 7),3
same,"Best response: Unable to evaluate, patients",[1]; 1.1 mg/kg q1w (N = 7),0
same,"Duration of response, Median",[1]; 1.1 mg/kg q1w (N = 7),6.8 months
same,"Duration of response, Range",[1]; 1.1 mg/kg q1w (N = 7),6.8-6.8 months
same,"minor responses, patients",[1]; 1.2 mg/kg q3w,1
same,"minor responses, patients",[1]; 1.4 mg/kg q1w,1
same,"Best response: Complete response, patients",[1]; 1.4 mg/kg q1w (N = 6),0
same,"Best response: Partial response, patients",[1]; 1.4 mg/kg q1w (N = 6),1
same,"Best response: Progressive disease, patients",[1]; 1.4 mg/kg q1w (N = 6),2
same,"Best response: Stable disease, patients",[1]; 1.4 mg/kg q1w (N = 6),2
same,"Best response: Unable to evaluate, patients",[1]; 1.4 mg/kg q1w (N = 6),1
same,"Duration of response, Median",[1]; 1.4 mg/kg q1w (N = 6),4.6 months
same,"Duration of response, Range",[1]; 1.4 mg/kg q1w (N = 6),4.6-4.6 months
same,"minor responses, patients",[1]; 1.6 mg/kg q1w,1
same,"minor responses, patients",[1]; 2.4 mg/kg q3w,Two
same,"unconfirmed partial responses, patients",[1]; 2.4 mg/kg q3w,1
same,"Best response: Complete response, patients",[1]; 2.4 mg/kg q3w (N = 29),1
same,"Best response: Partial response, patients",[1]; 2.4 mg/kg q3w (N = 29),3
same,"Best response: Progressive disease, patients",[1]; 2.4 mg/kg q3w (N = 29),6
same,"Best response: Stable disease, patients",[1]; 2.4 mg/kg q3w (N = 29),17
same,"Best response: Unable to evaluate, patients",[1]; 2.4 mg/kg q3w (N = 29),2
same,"Duration of response, Median",[1]; 2.4 mg/kg q3w (N = 29),4.9 months
same,"Duration of response, Range",[1]; 2.4 mg/kg q3w (N = 29),3.0-11.3 months
same,"minor responses, patients",[1]; 3.2 mg/kg q3w,1
same,average length of time on the study,[1]; FIG. 4,103 days
same,decrease in SLD of target lesions,"[1]; a patient at 3.2 mg/kg q3w, PD as overall status due to new lesions",> 30%
same,patients on the study ≥105 days,[1]; of the 29 patients at 2.4 mg/kg q3w,Sixteen
same,"reduction (MRI), complete response","[1]; person, 2.4 mg/kg IV q3w, after two doses",100%
same,"tumor response nadir, reduction","[1]; person, 2.4 mg/kg, after 8 doses",88%
same,"reduction in 3 target lesions (CT), partial response","[1]; person, 2.4 mg/kg, after two doses",37%
same,confirmed responses,"[1]; q1w cohorts, at 0.8, 1.1, and 1.4 mg/kg levels",3
same,binding affinity,[2],high affinity
